Experimental data taken from US20050282743A1, “Molecular interactions in cells” (Arbor Vita Corporation, priority 2001, published 2005).
Blank lines part the entries; values can stand above or below the binder they belong to.

Legend:
Test in all cases: G' assay
[1] = biological target: T1, GST-ZO-2 PDZ domain 2 (Homo sapiens (Human)), Q9UDY2
T1 chain: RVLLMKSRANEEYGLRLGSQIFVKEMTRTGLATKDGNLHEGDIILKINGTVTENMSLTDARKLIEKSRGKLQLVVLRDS

[2] = biological target: T2, GST-ZO-1 PDZ domain 2 (Rattus norvegicus (Rat)), A0A0G2
T2 chain: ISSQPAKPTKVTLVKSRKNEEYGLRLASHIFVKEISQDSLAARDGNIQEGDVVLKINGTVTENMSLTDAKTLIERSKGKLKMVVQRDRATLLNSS

[3] = biological target: GST-DLG1 PDZ domain 1 (Homo sapiens), Q12959
[4] = biological target: T3, GST-Outer Membrane PDZ domain 1 (Homo sapiens (Human)), P57105
T3 chain: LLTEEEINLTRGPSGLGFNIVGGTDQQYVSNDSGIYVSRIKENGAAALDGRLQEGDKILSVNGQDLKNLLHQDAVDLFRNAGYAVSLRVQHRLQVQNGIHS

[5] = biological target: GST-KIAA807 [GST: P08515]
[6] = biological target: T4, GST-KIAA1634 PDZ domain 2 (Homo sapiens (Human)), Q5TCQ9
T4 chain: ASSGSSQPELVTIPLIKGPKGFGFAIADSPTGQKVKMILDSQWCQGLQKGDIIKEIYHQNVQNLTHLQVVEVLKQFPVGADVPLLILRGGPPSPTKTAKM

[7] = biological target: T5, GST-MUPP1 PDZ domain 10 (Homo sapiens (Human)), O75970
T5 chain: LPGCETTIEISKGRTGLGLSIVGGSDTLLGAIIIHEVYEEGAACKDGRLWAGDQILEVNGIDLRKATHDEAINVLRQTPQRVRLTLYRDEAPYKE

[8] = biological target: T6, GST-AIPC PDZ domain 1 (Homo sapiens (Human)), O15018
T6 chain: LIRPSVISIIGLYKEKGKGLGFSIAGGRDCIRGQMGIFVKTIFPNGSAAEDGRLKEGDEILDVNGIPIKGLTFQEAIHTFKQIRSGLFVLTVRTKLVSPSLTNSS

[9] = biological target: GST-PSD95 PDZ domain 1 (Homo sapiens)
[10] = biological target: GST-KIAA1634 PDZ domain 1 (Homo sapiens (Human)), Q5TCQ9
[11] = biological target: GST-BAI-1 Associated Protein PDZ domain 2 (Mus musculus (Mouse)), Q6RHR9
[12] = biological target: T7, GST-INADL PDZ domain 8 (Homo sapiens (Human)), Q8NI35
T7 chain: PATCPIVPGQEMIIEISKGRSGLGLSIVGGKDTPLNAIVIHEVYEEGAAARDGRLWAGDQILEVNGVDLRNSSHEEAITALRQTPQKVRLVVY

[13] = biological target: T8, GST-DLG1 PDZ domain 2 (Homo sapiens), Q12959
T8 chain: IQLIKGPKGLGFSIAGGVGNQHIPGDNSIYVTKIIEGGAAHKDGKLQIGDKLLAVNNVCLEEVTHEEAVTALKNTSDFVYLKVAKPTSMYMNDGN

[14] = biological target: T9, GST-NeDLG PDZ domain 2 (Rattus norvegicus (Rat)), Q62936
T9 chain: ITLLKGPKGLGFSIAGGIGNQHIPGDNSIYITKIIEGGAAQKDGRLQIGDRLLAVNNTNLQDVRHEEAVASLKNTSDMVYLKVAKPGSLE

[15] = biological target: T10, GST-NeDLG PDZ domains 1, 2, Q92796
T10 chain: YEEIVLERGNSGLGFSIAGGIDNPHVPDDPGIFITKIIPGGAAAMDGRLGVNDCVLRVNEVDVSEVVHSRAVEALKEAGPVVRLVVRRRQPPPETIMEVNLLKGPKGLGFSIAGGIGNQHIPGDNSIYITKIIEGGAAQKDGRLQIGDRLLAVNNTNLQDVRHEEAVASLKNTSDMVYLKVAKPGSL

[16] = biological target: T11, GST-MINT1 PDZ domains 1, 2, Q02410
T11 chain: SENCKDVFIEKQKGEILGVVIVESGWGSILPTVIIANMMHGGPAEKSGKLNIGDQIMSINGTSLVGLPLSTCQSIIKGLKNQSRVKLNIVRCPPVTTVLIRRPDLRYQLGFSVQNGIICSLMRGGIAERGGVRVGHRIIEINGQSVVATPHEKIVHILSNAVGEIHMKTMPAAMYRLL

[17] = biological target: T12, GST-PTPL1 PDZ domain 2 (Homo sapiens (Human)), Q12923
T12 chain: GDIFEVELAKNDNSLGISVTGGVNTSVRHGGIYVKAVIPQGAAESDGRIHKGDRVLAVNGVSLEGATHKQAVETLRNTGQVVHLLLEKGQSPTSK

[18] = biological target: T13, GST-MUPP1 PDZ domain 13 (Homo sapiens (Human)), O75970
T13 chain: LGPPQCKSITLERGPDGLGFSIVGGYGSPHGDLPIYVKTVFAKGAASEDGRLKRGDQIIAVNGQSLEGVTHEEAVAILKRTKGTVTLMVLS

[19] = biological target: GST-BAI-1 Associated Protein PDZ domain 5 (Homo sapiens (Human)), Q96QZ7
[20] = biological target: GST-PSD95 PDZ domains 1, 2, 3 (Homo sapiens), P78352
[21] = biological target: T14, GST-FLJ 10324 PDZ domain 1 [GST: P08515]
T14 chain: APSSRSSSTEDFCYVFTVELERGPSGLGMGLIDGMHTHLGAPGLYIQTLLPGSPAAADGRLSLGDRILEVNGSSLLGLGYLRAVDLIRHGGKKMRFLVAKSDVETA

[22] = biological target: T15, GST-APXL-1 PDZ domain 1 (Homo sapiens (Human)), Q13796
T15 chain: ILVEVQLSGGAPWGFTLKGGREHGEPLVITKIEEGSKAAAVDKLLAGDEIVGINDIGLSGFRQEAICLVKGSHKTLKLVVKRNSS

[23] = biological target: GST-BAI-1 Associated Protein PDZ domain 4 (Homo sapiens (Human)), Q96QZ7
[24] = biological target: T16, GST-PTPL1 PDZ domain 4 (Homo sapiens (Human)), Q12923
T16 chain: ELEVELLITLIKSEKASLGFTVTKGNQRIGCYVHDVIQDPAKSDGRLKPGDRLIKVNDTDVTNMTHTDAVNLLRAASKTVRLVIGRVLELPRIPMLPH

[25] = biological target: T17, GST-X-11 beta PDZ domain 2 (Rattus norvegicus (Rat)), O35431
T17 chain: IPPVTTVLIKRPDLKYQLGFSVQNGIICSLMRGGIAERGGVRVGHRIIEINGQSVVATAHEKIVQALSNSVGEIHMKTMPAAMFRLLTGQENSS

[26] = biological target: T18, GST-MINT1 PDZ domain 2 (Mus musculus (Mouse)), B2RUJ5
T18 chain: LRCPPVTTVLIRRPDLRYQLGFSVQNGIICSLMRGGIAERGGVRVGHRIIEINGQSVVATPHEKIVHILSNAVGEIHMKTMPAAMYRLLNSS

[27] = biological target: T19, GST-KIAA0807(S) PDZ domain 1 (Homo sapiens (Human)), Q6P0Q8
T19 chain: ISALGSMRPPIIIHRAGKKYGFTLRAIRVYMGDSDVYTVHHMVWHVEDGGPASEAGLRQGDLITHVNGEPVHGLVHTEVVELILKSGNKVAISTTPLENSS
Note: key of the grades not given here.

GST-KIAA807 [GST: P08515], sequence (P08515 whole entry, the tested form may be a part): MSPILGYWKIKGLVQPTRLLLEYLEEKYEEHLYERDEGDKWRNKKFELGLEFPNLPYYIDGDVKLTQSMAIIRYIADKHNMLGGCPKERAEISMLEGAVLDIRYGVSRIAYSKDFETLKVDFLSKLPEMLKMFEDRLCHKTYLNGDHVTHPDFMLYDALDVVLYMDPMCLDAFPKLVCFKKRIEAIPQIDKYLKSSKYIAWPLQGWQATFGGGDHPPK
GST-PSD95 PDZ domains 1, 2, 3 (Homo sapiens), P78352, sequence (P78352 62-395): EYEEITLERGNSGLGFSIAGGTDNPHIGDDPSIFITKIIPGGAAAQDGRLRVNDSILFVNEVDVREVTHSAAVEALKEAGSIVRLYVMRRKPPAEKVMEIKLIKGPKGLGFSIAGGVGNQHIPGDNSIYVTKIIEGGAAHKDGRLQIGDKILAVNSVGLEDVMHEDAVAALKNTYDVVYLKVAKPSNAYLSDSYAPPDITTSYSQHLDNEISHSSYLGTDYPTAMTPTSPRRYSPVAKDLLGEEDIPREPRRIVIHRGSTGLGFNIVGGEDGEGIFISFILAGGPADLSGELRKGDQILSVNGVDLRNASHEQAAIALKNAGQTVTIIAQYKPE
GST-BAI-1 Associated Protein PDZ domain 5 (Homo sapiens (Human)), Q96QZ7, sequence (Q96QZ7 988-1099): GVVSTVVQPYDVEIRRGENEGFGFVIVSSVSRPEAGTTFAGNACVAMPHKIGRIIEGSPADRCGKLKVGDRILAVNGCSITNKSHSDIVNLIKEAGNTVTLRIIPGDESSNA
GST-KIAA1634 PDZ domain 1 (Homo sapiens (Human)), Q5TCQ9, sequence (Q5TCQ9 401-502): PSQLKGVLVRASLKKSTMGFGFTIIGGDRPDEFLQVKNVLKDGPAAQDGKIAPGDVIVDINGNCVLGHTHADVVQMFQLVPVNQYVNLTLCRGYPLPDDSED
GST-BAI-1 Associated Protein PDZ domain 2 (Mus musculus (Mouse)), Q6RHR9, sequence (Q6RHR9 455-558): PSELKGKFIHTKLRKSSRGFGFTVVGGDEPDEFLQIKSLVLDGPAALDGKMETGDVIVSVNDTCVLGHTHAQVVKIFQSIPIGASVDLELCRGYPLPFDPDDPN
GST-BAI-1 Associated Protein PDZ domain 4 (Homo sapiens (Human)), Q96QZ7, sequence (Q96QZ7 other isoform, or with tags, fused parts or gaps): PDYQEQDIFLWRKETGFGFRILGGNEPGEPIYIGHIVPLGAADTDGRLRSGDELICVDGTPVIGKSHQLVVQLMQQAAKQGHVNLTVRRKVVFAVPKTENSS

Classification [1]: 1 A450 class | Classification [2]: 2 A450 class
Binder: PSSRASSRASSRPRPDDLEI (modifications not checked) [CX43 (connexin 43)]

Classification [3]: 1 A450 class | Classification [4]: 1 A450 class | Classification [5]: 1 A450 class | Classification [6]: 1 A450 class | Classification [7]: 1 A450 class | Classification [8]: 1 A450 class | Classification [9]: 1 A450 class | Classification [10]: 1 A450 class | Classification [11]: 1 A450 class | Classification [12]: 1 A450 class | Classification [13]: 1 A450 class | Classification [14]: 1 A450 class | Classification [15]: 2 A450 class | Classification [16]: 1 A450 class | Classification [17]: 1 A450 class | Classification [18]: 1 A450 class | Classification [19]: 1 A450 class | Classification [20]: 2 A450 class | Classification [21]: 1 A450 class
Binder: ISGTPTSTMVHGMTSSSSVV (modifications not checked) [Clasp-2]

Classification [5]: 1 A450 class | Classification [7]: 1 A450 class | Classification [22]: 1 A450 class | Classification [23]: 1 A450 class | Classification [16]: 1 A450 class | Classification [24]: 1 A450 class | Classification [25]: 1 A450 class | Classification [26]: 1 A450 class | Classification [27]: 1 A450 class
Binder: NGGFAVDKSDTISFTQTSQF (modifications not checked) [glutamate transporter 3]
